These results are taken from patent publication US7553667B2, “Regulation of gene expression using chromatin remodelling factors” (Her Majesty the Queen in right of Canada as represented by …, priority 2002, dated 2009).

The test system of data set [1] is lacZ reporter gene driven by a promoter containing GAL4 DNA binding sites. Briefly: Transactivation assay of BnSCL1 in yeast. The format is cell-based, yeast MaV203. The text has this: MaV203 yeast cells expressing the lacZ reporter gene driven by a promoter containing GAL4 DNA binding sites (GibcoL BRL) were transformed with the […]. These vectors were constructed by ligating the PCR-amplified fragments, ΔBnSCL1^1-358, ΔBnSCL1^1-261, ΔBnSCL1^1-217, ΔBnSCL1^1-145, ΔBnSCL1^146-358 and ΔBnSCL1^218-434 and the entire coding region of BnSCL1, respectively, into the SalI and NotI sites of the vector pDBLeu (GibcoL BRL) in-frame with the GAL4 DB sequence. The oligonucleotide primers for the amplification were the same as those used for the in vivo protein interaction assays. The β-galactosidase activity was measured using CPRG according to the manufacturer's instructions (GibcoL BRL). In addition to the yeast strains A, B and C, the yeast strains D (GibcoL BRL) that contain plasmid pairs expressing fusion protein with strong interaction strength was used as controls.

For data set [2], the target named is T1, GST-HDA19 (Arabidopsis thaliana, UniProt O22446).
T1 construct: made in house; host or cells: E. coli BL21-CodonPlus (DE3)-RP
T1 sequence (O22446 1-501): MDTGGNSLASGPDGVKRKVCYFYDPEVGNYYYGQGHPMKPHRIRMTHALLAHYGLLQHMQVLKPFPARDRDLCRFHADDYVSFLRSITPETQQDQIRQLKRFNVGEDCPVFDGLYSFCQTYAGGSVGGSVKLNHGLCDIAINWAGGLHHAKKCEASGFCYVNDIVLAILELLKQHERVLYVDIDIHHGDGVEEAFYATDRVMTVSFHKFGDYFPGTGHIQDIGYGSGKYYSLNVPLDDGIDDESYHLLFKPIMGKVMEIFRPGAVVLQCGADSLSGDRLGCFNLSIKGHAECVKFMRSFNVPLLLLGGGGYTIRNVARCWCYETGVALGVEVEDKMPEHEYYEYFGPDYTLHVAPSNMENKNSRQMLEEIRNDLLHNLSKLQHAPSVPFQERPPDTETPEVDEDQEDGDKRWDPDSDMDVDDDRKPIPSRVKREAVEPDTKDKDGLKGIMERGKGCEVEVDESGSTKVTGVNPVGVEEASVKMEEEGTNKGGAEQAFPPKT
Briefly: GST pulldown affinity assay of BnSCL1 and mutants with GST-HDA19. The format is binding. The conditions noted are these: [35S]Met-labeled in vitro translated protein. Here is the method:
The open reading frame (ORF) of the HDA19 was PCR amplified, sequence analyzed, inserted in-frame with the GST (glutathione s-transferase) into the vector pGEX-6P-2 (Amersham Pharmacia), and transformed into E. coli BL21-CodonPlus (DE3)-RP competent cells (Stratagene) as previously described (Gao et al., 2003). The recombinant HDA19 protein was expressed and purified under non-denaturing conditions as described by Gao et al, 2002). The GST-HDA19 fusion protein was analyzed by western blotting with rabbit anti-GST-Pi polyclonal antibody (Chemicon) using ECL Western blotting analysis system (Amersham Pharmacia).
The entire coding region of BnSCL1 and four fragments, BnSCL1^1-358, BnSCL1^1-261, BnSCL1^1-217, and BnSCL1^1-145 […], respectively, were amplified by PCR and cloned into the HindIII and XhoI sites of the expression vector pET-28b (Novagen) in-frame with the His-Tag sequence. […]
The TnT-Quick Coupled Transcription/Translation System (Promega) was used to produce the full-length BnSCL1 protein and the truncated mutants ΔBnSCL1^1-358, ΔBnSCL1^1-261, ΔBnSCL1^1-217 and ΔBnSCL1^1-145 labeled with [^35S]methionine as previously described (Gao et al., 2003). In vitro protein interaction was detected with GST pulldown affinity assays as described by Ahmad et al. (1999) and Gao et al., (2003).

Data set [3] relates to lacZ reporter gene driven by promoter containing GAL4 DNA binding sites. The experiment in a line: Transactivation assay of bnKCP1 using yeast one-hybrid system. The format is cell-based, yeast MaV203. From the text: Effector plasmids pDBLeu-bnKCP1^1-160, pDBLeu-bnKCP1^1-80, pDBLeu-bnKCP1^81-215 and pDBLeu-bnKCP1 were constructed by ligating the PCR-amplified fragments ΔbnKCP1^1-160, ΔbnKCP1^1-80, ΔbnKCP1^81-215 and the coding region of bnKCP1 into the SalI/NotI sites of pDBLeu vector (GibcoL BRL) in-frame with the GAL4 DB sequence. The oligonucleotide primers for PCR amplification were as follows: […]
The three reporter genes, lacZ, HIS3 and URA3, which were chromosomally integrated in the genome of MaV203 yeast cells were driven by unrelated promoters containing GAL4 DNA binding sites (GibcoL BRL). For transient assays, the effector constructs or the negative control vector pDBLeu were transferred to the MaV203 yeast cells. The β-galactosidase activity was measured using CPRG (chlorophenol red-β-D-galactopyranoside) according to the manufacturer's instructions (GibcoL BRL). The MaV203 cells containing plasmids pDBLeu-HDA19 and pPC86-bnKCP1 were used as the positive control. In addition, we used three yeast control strains A, B, and C (GibcoL BRL), which were developed to contain plasmid pairs expressing fusion proteins with none, weak and moderately strong protein-protein interaction strength, respectively. Transient Expression of the GUS-bnCKP1 Fusion Protein

The next data set concerns the target T2, GST-Gcn5 (Arabidopsis thaliana, UniProt Q9AR19).
T2 construct: made in house; host or cells: E. coli BL21-CodonPlus (DE3)-RP
T2 sequence (Q9AR19 1-568): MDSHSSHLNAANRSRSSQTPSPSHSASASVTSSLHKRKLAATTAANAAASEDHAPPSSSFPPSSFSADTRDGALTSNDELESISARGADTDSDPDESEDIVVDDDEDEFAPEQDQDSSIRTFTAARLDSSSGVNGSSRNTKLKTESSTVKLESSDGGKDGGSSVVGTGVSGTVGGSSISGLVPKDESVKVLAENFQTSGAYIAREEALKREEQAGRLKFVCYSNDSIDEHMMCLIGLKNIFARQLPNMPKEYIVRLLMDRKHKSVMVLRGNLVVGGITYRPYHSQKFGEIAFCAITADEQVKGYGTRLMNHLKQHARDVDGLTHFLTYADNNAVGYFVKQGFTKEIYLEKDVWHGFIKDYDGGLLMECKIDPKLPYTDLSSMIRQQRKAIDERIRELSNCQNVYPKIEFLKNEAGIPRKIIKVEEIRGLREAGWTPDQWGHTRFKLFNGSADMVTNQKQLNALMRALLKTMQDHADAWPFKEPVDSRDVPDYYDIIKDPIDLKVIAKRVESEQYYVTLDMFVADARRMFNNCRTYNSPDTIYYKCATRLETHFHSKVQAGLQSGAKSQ
Briefly: GST pulldown affinity assay of bnKCP1 and mutants with GST-Gcn5. The format is binding. Particulars: [35S]Met-labeled in vitro translated protein. The text has this:
(§1) The full coding regions of the Arabidopsis HAT, Gcn5 (Dr. M. Thomashow, Michigan State University, MI), and HDA19 (Accession # AF195547) were PCR amplified, sequence analyzed and inserted in-frame with the GST (glutathione s-transferase) into the SalI and NotI sites of vector pGEX-6P-2 (Amersham Pharmacia). The forward used for the amplification of Gcn5 was:
(§2) Recombinant pGEX-6P-2 plasmids were used to transform E. coli BL21-CodonPlus (DE3)-RP competent cells (Stratagene). Expression and purification under non-denaturing conditions were carried out as described by Gao et al. (Gao, M.-J. et al., 2002). The GST-Gcn5 and GST-HDA19 fusion proteins were analyzed by 7.5% SDS-PAGE (SDS-polyacrylamide gel electrophoresis) and western blotting with rabbit anti-GST-Pi polyclonal antibody (Chemicon) using ECL Western blotting analysis system (Amersham Pharmacia).
(§3) Full-length bnKCP1 and truncated mutant bnKCP1^1-160 and bnKCP1^1-80 proteins labeled with [^35S]methionine were produced using TNT-Quick Coupled Transcription/Translation System (Promega) according to the manufacture's instructions, with some modifications. A total of 1 μl of RNase inhibitor (GibcoL BRL) and 1 μl of protease inhibitors set (Roche) were added to the lysate reaction. After incubation for 90 min at 30° C., RNase A was added to the reaction to a final concentration of 0.2 mg/ml and incubated for 5 min at the same temperature.
In vitro protein interaction was detected with GST pulldown affinity assays as described by Ahmad et al. (1999) with some modifications. […] After washing six times with 1.2 ml of bead-binding buffer without BSA and EtBr but containing 12 μl of protease inhibitors set (Roche), the bound proteins were eluted with 30 μl of 2×SDS loading buffer, boiled for 2 min and analyzed by 12% SDS-PAGE. […]

A further data set has as its target T3, Gcn5 (Arabidopsis thaliana, UniProt Q9AR19).
T3 construct: expressed in transfected cells; host or cells: Saccharomyces cerevisiae MaV203
T3 sequence (Q9AR19 1-568): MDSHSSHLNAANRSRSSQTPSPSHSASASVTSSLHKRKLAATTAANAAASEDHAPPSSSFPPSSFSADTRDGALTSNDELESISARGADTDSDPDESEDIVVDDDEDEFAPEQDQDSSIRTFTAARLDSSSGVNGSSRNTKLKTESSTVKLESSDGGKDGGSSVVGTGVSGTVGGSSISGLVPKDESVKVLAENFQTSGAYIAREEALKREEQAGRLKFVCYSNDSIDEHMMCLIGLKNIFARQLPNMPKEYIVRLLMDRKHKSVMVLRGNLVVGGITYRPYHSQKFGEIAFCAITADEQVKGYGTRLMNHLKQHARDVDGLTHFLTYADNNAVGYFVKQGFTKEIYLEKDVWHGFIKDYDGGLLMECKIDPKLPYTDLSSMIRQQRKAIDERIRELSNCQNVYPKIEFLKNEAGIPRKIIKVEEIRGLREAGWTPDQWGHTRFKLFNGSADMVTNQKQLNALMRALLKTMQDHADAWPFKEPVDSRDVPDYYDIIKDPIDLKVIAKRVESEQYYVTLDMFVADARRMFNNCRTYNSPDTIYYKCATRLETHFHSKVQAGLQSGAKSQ
The experiment in a line: Yeast two-hybrid interaction of bnKCP1 with Gcn5 (HIS3, URA3, lacZ reporters). The format is cell-based. The conditions noted are these: MaV203 yeast, Gcn5 fused to Gal4 DB, data not shown. From the text:
To reassess the interaction of bnKCP1 with Gcn5 in vivo, the ORF of the Arabidopsis Gcn5 was fused to the yeast Gal4 DNA binding domain in pDBLeu vector and then used to transform yeast MaV203 cells expressing bnKCP1 fused to the yeast Gal4 activation domain in pPC86 vector.

Data set [4] concerns the target T1, GST-HDA19. Briefly: GST pulldown affinity assay of bnKCP1 and mutants with GST-HDA19. The format is binding. The conditions noted are these: [35S]Met-labeled in vitro translated protein.
Source text: as §1, §2, §3
In vitro protein interaction was detected with GST pulldown affinity assays as described by Ahmad et al. (1999) with some modifications. Briefly, 6 μg of GST or 4 μg of GST-fusion protein was incubated with 5 μl of [^35S]Met-labeled translation mixture in 200 μl of bead-binding buffer (50 mM K-phosphate, pH 7.6, 450 mM KCl, 10 mM MgCl2, 10% glycerol, 1% Triton X-100, 1% BSA and 1 μl of diluted 1:12 protease inhibitors set) for 1 h at room temperature. After incubation, 20 μl of 50% slurry of glutathione-Sepharose beads containing 10 mg/ml of BSA and 4 μg of EtBr was mixed with the reaction mixture followed by gentle rotation for 1 h at 4° C. After washing six times with 1.2 ml of bead-binding buffer without BSA and EtBr but containing 12 μl of protease inhibitors set (Roche), the bound proteins were eluted with 30 μl of 2×SDS loading buffer, boiled for 2 min and analyzed by 12% SDS-PAGE. After electrophoresis, the gels were dried, treated with Amplify (Amersham Pharmacia) and subjected to fluorography.

B1: BnSCL1: Brassica napus SCARECROW-like protein 1, SEQ ID NO:81 (protein)
chain: MKLQASSPQDNQPSNTTNNSTDSNHLSMDEHAMRSMDWDSIMKELEVDDDSAPYQLQPSSFNLPVFPDIDSSDVYPGPNQITGYGFNSLDSVDNGGFDYIEDLIRVVDCIESDELHLAHVVLSQLNQRLQTSAGRPLQRAAFYFKEALGSLLTGTNRNQLFSWSDIVQKIRAIKEFSGISPIPLFSHFTANQAILDSLSSQSSSPFVHVVDFEIGFGGQYASLMREIAEKSANGGFLRVTAVVAEDCAVETRLVKENLTQFAAEMKIRFQIEFVLMKTFEILSFKAIRFVDGERTVVLISPAIFRRVIGIAEFVNNLGRVSPNVVVFVDSEGCTETAGSGSFRREFVSAFEFYTMVLESLDAAAPPGDLVKKIVETFLLRPKISAAVETAANRRSAGQMTWREMLCAAGMRPVQLSQFADFQAECLLEKAQVRGFHVAKRQGELVLCWHGRALVATSAWRF
modifications: left off: large carriers
As for B1, the “transactivation of reporter genes HIS3 and URA3” value in data set [1] (data not shown) is listed as “strongly transactivated”. Also, the “increase of β-galactosidase activity” value in data set [1] (relative to vector pDBLeu alone or yeast control strain A) is given as “approximately 20 fold”. The “in vitro binding to GST-HDA19” value in the data set with GST-HDA19 [2] is on record as “bound”.

B2: bnKCP1: B. napus KID-containing protein 1, 215 amino acid protein interacting with HDA19 (SEQ ID NO:71) (protein)
chain: MAGGGPTFSIELSAYGSDLPTDKASGDIPNEEGSGLSRVGSGIWSGRTVDYSSESSSSIGTPGDSEEEDEESEEDNDEEELGLASLRSLEDSLPSKGLSSHYKGKSKSFGNLGEIGSVKEVPKQENPLNKKRRLQIYNKLARKSFYSWQNPKSMPLLPVHEDNDDEEGDDGDLSDEERGGDVLARRPSFKNRALKSMSCFALSDLQEEEEEEEDE
modifications: left off: large carriers
Turning to B2, in data set [3] (data not shown), the “activation of reporter genes HIS3 and URA3” value is “modestly activated”. The “stimulation of β-galactosidase activity” value in data set [3] (relative to GAL4 DB alone or yeast control strain A) was “about 8 fold”. Also, the “in vitro binding to GST-Gcn5” value with GST-Gcn5 is on record as “bound”. In the data set with Gcn5, the “induction of reporter genes HIS3, URA3 and lacZ with Gcn5, compared with HDA19” value was “relatively lower level”. The “in vitro binding to GST-HDA19” value with GST-HDA19 [4] was “bound”.
